We go through six molecules from US12624096B2, “Anti-tau antibodies and methods of use thereof” (GTInvent Limited, priority 2020, dated 2026).

The target of one experiment is hT40 (Homo sapiens, UniProt P10636). In words: Biacore X100 SPR, scAb captured via anti-HuCk, hT40 as analyte. It counts as binding. Conditions: scAb, Table 23, T441 (hT40). The protocol: Surface plasmon resonance (SPR) is widely regarded as the gold standard for real time measurement of protein-protein interactions such as antibody binding. All SPR experiments were carried out using a Biacore X100 machine and HBS EP+ running buffer (GE Healthcare). A ‘capture’ method was followed for affinity measurements, where an anti-human constant kappa chain (HuCk) antibody was conjugated to the surface of a CM5 sensor chip using an amine coupling kit and scAb molecules were immobilised via their HuCk domain. Amine coupling is a very common approach for immobilising the ligand to the chip surface. […] The capture antibody was diluted 1/100 in 10 mM Sodium acetate buffer pH 5.0 and passed over the activated chip surface for a period of at least 420 s. Final ligand immobilisation levels over 12,000 RU were deemed to be satisfactory.
Sequence of hT40 (P10636 1-441 isoform P10636-8): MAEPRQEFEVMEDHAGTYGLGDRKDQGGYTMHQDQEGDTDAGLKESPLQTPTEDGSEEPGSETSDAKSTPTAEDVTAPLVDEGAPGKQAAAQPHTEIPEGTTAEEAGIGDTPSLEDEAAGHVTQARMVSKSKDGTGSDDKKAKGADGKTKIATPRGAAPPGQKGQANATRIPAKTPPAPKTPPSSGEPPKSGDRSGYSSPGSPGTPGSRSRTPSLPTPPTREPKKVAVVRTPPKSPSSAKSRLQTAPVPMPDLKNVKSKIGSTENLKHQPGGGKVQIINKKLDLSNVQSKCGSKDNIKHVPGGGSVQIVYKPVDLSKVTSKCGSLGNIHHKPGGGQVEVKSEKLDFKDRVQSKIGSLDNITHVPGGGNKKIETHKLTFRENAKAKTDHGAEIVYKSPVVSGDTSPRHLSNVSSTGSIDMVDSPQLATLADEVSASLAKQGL
(§1) Following immobilisation, the level of each scAb to be captured was identified using the standard SPR equation with a theoretical RMax of 100 RU. Analyte MW refers to the molecular weight of hT40 or dGA/dGAE molecules, while ligand MW refers to the molecular weight of the scAbs tested. RL is the desired capture level and S refers to the stoichiometric ratio:
The scAb to be tested was added only to flow cell 2 so that flow cell 1 could act as a control to subtract any interaction with the analyte and the chip surface. Both single and multi-cycle runs were utilised using wizards developed in the Biacore X100 control software which are both accepted methods of kinetic analysis (Karlsson, R., et al. Analyzing a kinetic titration series using affinity biosensors (2006) Analytical Biochemistry 349:136-47). The multi-cycle protocol was as follows-Three start-up cycles composed of an initial capture, to the desired level, of the scAb to be tested was performed followed by a 30 s injection of glycine buffer pH 2.0 after each cycle to regenerate the chip surface. […] Following three start-up cycles increasing concentrations (0.15625 nM-100 nM) of the target to be tested were added to the chip surface after the desired scAb capture. The target was added for a 120 s association period and 420 s dissociation period followed by another regeneration, 30 s injection of glycine buffer pH 2.0 in between each cycle.
(§2) The single cycle kinetics protocol was similar and utilised the same level of scAb capture. Three start-up cycles were used followed by 5 increasing concentrations of the analyte (6.25 nM-100 nM) for an association period of 120 s followed by a dissociation period of 420 s for each concentration. In single cycle kinetics the regeneration step was performed only after the final analyte concentration was added. Binding responses were analysed in Biacore X100 evaluation software and data fitted to a 1:1 binding model to obtain kinetic and affinity characterisation.

The subject of experiment [1] is alanine substituted 13mer tau peptides. Nature of the experiment: Alanine scanning mutagenesis (ASM) peptide ELISA. The following applies: numbering according to SEQ ID NO: 1; description text 'may be'. It counts as binding, human. How it is done:
To further elucidate epitopes of the scAb panel, and identify the critical amino acids needed for binding, alanine scanning mutagenesis of the parent 13 aa peptides for scAbs CE2, S1D12, CA4 and S1G2 was performed. […] Briefly, 5 μg/ml streptavidin (Thermo Fisher) was adsorbed to Nunc 96-well MaxiSorp plates and following incubation at 37° C., for 1 h, the plates were washed as normal and blocked with 2% MPBS. N-terminally biotinylated peptides (Prolmmune Ltd) were added to the plates and incubated for 1 h at 37° C. Subsequently, test scAbs at starting concentrations of 100-500 nM was added and double diluted across the plate for each peptide and incubated for 1 h at 37° C. Rest of the ELISA was conducted as described above and the plates were read at absorbance 450 nm. Immunoreactivity of the scAb of interest was quantified as the % of scAb was bound for each peptide at a chosen concentration (FIG. 15-20).
(An ELISA detects its analyte on a solid surface through an enzyme-linked reagent.)

In a further experiment the target is htau40 (Homo sapiens, UniProt P10636). Nature of the experiment: Biacore X100 SPR of anti-tau mAbs on immobilised htau40. It counts as binding. The following applies: mAb, Table 27, immobilised hT40. How it is done: For anti-tau mAb SPR measurements, htau40 was conjugated to the surface of a CM5 sensor chip using amine coupling as explained previously. Briefly, 2 μg/mL htau40 in 10 mM Sodium acetate buffer (pH 4.0) was passed over the activated chip surface (EDC/NHS) in flow cell 2 for a period for 45 s followed by blocking with 1 M ethanolamine-HCl PH 8.5. Flow cell 1 was set up as reference control and blocked simultaneously. Final immobilisation level of htau40 (Rmax) was approximately 250 RU. Following a minimum of three start-up cycles, increasing concentrations (0.78 nM-25 nM) of the mAb in HBS-EP+ buffer was added at a rate of 30 μL/min to the chip. The mAb was added for a 120 s association period and 600 s dissociation period followed by a regeneration cycle of 30 s injection of glycine buffer pH 1.5 in between each cycle. Binding responses were analysed in Biacore X100 evaluation software and data fitted to a 1:1 binding model to obtain kinetic and affinity characterisation.
Sequence of htau40 (P10636 1-441 isoform P10636-8): as above
For anti-tau mAb SPR measurements (Biacore X100™) and epitope mapping, the same methodologies described above (see Example 16) were followed. Kinetic rates and equilibrium binding constants of additional anti-tau mAbs and the regions recognised on hT40 are given in the Table 25 below
In general terms: SPR reads the build-up and loss of mass on a sensor chip optically.

Another experiment has as its target dGAE aggregates (Homo sapiens, UniProt P10636). In words: Sandwich ELISA on SDS/Triton X-100 treated dGAE aggregates. It is filed as binding. How it is done: For aggregation, 1000 μL 100 μM dGAE+10 μL 10 mM DTT was added to a ‘LoBind’ microfuge tubes and agitated at 700 RPM/37° C., for 24 hours. Resulting sample centrifuged at 17,000×g/4° C., for 60 min and supernatant discarded to remove left over monomer. Pellet resuspended in half the original volume for future experiments and hereafter referred to as ‘aggregates’. 1 μl of aggregates was added to 1 ml of PBS and SDS was added to a final concentration of 1% (w/v). This was left to incubate on lab bench for 1 h with gentle agitation every 15 minutes. In order to neutralise the SDS effect on ELISA, Triton X-100 added to a final concentration of 3% (v/v) and mixed gently by pipetting to prevent any bubble formation. […] Similarly aggregates treated with only SDS or Triton X-100, untreated aggregates, dGAE monomers treated with only SDS or SDS+Titon X-100 were also added to designated wells as controls. All samples were then double diluted across the plate in final volumes of 100 μl. The final column was left with no protein to act as a blank. This was allowed to stand at room temperature for 1 hour followed by the addition of detection scAb-S1G2 at 10 μg/ml. Anti-HuCk HRP labelled secondary antibody was added as described previously and ELISA data generated was represented using the graph below. In addition, limits of detection (LoD) of various core binding antibody pairing for SDS Triton X-100 treated dGAE aggregates were calculated using the above describe ELISA method and substituting capture mAbs and detection scAbs as shown in Table 30.

The next experiment deals with dGA (Homo sapiens, UniProt P10636). In words: Biacore X100 SPR, scAb captured via anti-HuCk, dGA as analyte. Conditions: dissociation rate. It counts as binding. How it is done:
Surface plasmon resonance (SPR) is widely regarded as the gold standard for real time measurement of protein-protein interactions such as antibody binding. All SPR experiments were carried out using a Biacore X100 machine and HBS EP+ running buffer (GE Healthcare). A ‘capture’ method was followed for affinity measurements, where an anti-human constant kappa chain (HuCk) antibody was conjugated to the surface of a CM5 sensor chip using an amine coupling kit and scAb molecules were immobilised via their HuCk domain. Amine coupling is a very common approach for immobilising the ligand to the chip surface. The chip surface has a dextran matrix derivatised with carboxyl groups, which after activation with N-hydroxysuccinimide (NHS) and 1-ethyl-3-(3-dimethylaminopropyl) carbodiimide (EDC), form reactive succinimide esters which allows the covalent capturing of the ligand via any available primary amine groups (e.g. Lysine) on the ligand (in this case anti-HuCk antibody). The capture antibody was diluted 1/100 in 10 mM Sodium acetate buffer pH 5.0 and passed over the activated chip surface for a period of at least 420 s. Final ligand immobilisation levels over 12,000 RU were deemed to be satisfactory.
as §1
The scAb to be tested was added only to flow cell 2 so that flow cell 1 could act as a control to subtract any interaction with the analyte and the chip surface. Both single and multi-cycle runs were utilised using wizards developed in the Biacore X100 control software which are both accepted methods of kinetic analysis (Karlsson, R., et al. Analyzing a kinetic titration series using affinity biosensors (2006) Analytical Biochemistry 349:136-47). The multi-cycle protocol was as follows-Three start-up cycles composed of an initial capture, to the desired level, of the scAb to be tested was performed followed by a 30 s injection of glycine buffer pH 2.0 after each cycle to regenerate the chip surface. The regeneration step removed any captured scAb whilst leaving the capture antibody intact and able to repeat the capture for the next cycle. Following three start-up cycles increasing concentrations (0.15625 nM-100 nM) of the target to be tested were added to the chip surface after the desired scAb capture. The target was added for a 120 s association period and 420 s dissociation period followed by another regeneration, 30 s injection of glycine buffer pH 2.0 in between each cycle.
as §2

[2] abbreviates: S1D12 mAb capture, +SDS Triton dGAE agg.
Setting [3] is: direct immobilisation of dGAE aggregates, +SDS Triton.

Sequence of dGAE aggregates (P10636 614-708): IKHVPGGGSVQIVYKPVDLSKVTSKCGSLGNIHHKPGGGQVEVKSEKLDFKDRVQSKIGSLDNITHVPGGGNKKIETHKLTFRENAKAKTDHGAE
Sequence of dGA (P10636 614-707): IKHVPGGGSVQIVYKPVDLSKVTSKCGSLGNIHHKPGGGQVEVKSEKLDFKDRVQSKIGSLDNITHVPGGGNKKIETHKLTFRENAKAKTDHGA

B1: CA4: anti-tau clone, SEQ ID NO: 368 (protein)
chain: QVQLQESGPSLVKPSQTLSLTCTVSGFSLTSYSVYWVRQAPGQALEWISIMYASGRVDYNPALKSRLSITRDTSKSQFSLSLSSVTTEDTAVYYCTRGIENWGPGLLVTVSSEGKSSGASGESKVDDDIQVTQSPSSLSASLTERVSITCRTSQSVNNYLSWYQQKPGQAPKLLIYYATRLYTDVPSRFSGSGSGTDYTLTITSLEADDTATYYCLQYDSTPLAFGGGTNVEIK
modifications: CA4 amino acid sequence
In the experiment with hT40, B1 showed a ka of 458100 M⁻¹ s⁻¹ and a kd of 0.001654 s⁻¹. For the same molecule, the “Critical residues of the epitope” value in experiment [1] is recorded as 358 (D), 360 (I), 361 (T), 362 (H) and/or 364 (P). In the experiment with htau40, the ka worked out at 1.02e+06 M⁻¹ s⁻¹ and the kd worked out at 0.001276 s⁻¹.

B2: CA9: anti-tau clone, SEQ ID NO: 371 (protein)
scFv: QVQLQESGPSLVKPSQTLSLTCTVSGFSLTSNSVGWVRQAPGKAPEWVAGIDTDGEEGYNPALNSRLSITRDTSKSQVSLSLSSVTSEDTAVYYCGRSYRSDGLAYGYVQAIDYWGPGLLVTVSSEGKSSGASGESKVDDQAVLTQPASVSGSLGQRVSITCSGSFIGISSVGWFQQLPGSGLRTIIVASDGRPSGVPDRFSMSKSGNTATLTISSLQAEDEADYFCGSSDRTQYTGVFGSGTRLTVLG
modifications: CA9 amino acid sequence
As to B2, the “Critical residues of the epitope” value in experiment [1] is reported as 370 (K), and/or 374 (H).

B3: CA9 scAb (protein)
scFv: QVQLQESGPSLVKPSQTLSLTCTVSGFSLTSNSVGWVRQAPGKAPEWVAGIDTDGEEGYNPALNSRLSITRDTSKSQVSLSLSSVTSEDTAVYYCGRSYRSDGLAYGYVQAIDYWGPGLLVTVSSEGKSSGASGESKVDDQAVLTQPASVSGSLGQRVSITCSGSFIGISSVGWFQQLPGSGLRTIIVASDGRPSGVPDRFSMSKSGNTATLTISSLQAEDEADYFCGSSDRTQYTGVFGSGTRLTVLG
modifications: left off: small tags and cut ends
Turning to B3, the values for the LoD in the experiment with dGAE aggregates (setting [2]) and with dGAE aggregates (setting [3]) were 4 ng/mL and 40 ng/mL, respectively.

B4: S1E12: anti-tau clone, SEQ ID NO: 218 (protein)
scFv: QVQLQESGPSLVKPSQTLSLTCTVSGFSLGSNSVGWVRQAPGKAPEWVAGIDTDGEEGYNPALNSRLSITRDTSKSQVSLSLSSVTSEDTAVYYCGRSYRADGLAYGYVQAIDYWGPGLLVTVSSEGKSSGASGESKVDDRVVRTQPSSVSGSLGQRVSITCSGSFIGISSVGWFQQLPGSGLRTIIVASDGRPSGVPDRFSMSKSGNTATLTISSLQAEDEADYFCGSSDRTQYTGVFGSGTRLTVLG
modifications: S1E12 amino acid sequence
On to B4, for which, in the experiment with hT40, the ka was 385000 M⁻¹ s⁻¹ and the kd was determined as 0.000319 s⁻¹. Further, the “Kd” value in the experiment with dGA stood at 0.001627 s⁻¹.

B5: CA12: anti-tau clone, SEQ ID NO: 372 (protein)
scFv: QVQLQGSGPSLVKPSQTLSLTCTVSGFSFDSYYVGWVRQAPGKALEWLGNIYSTGRAFYNPALKSRLSITRDTSKSQVSLSVSSVTIEDTALYYCVRGSYYHGGGNGMVDFFDYWSPGLLVTVSSEGKSSGASGESKVDDQVVRTQPSSVSGSLGQRVSITCSGSSSNVGYGNYVGWFQQVPGSAPKLLIYAATSRASGVPDRFSGSRSGNTATLTIDSLQAEDEADYYCSSYQRGNTGVFGSGTRLTVLG
modifications: CA12 amino acid sequence
For B5, the “Critical residues of the epitope” value in experiment [1] is 370 (K), and/or 374 (H).

B6: CA12 scAb (protein)
scFv: QVQLQGSGPSLVKPSQTLSLTCTVSGFSFDSYYVGWVRQAPGKALEWLGNIYSTGRAFYNPALKSRLSITRDTSKSQVSLSVSSVTIEDTALYYCVRGSYYHGGGNGMVDFFDYWSPGLLVTVSSEGKSSGASGESKVDDQVVRTQPSSVSGSLGQRVSITCSGSSSNVGYGNYVGWFQQVPGSAPKLLIYAATSRASGVPDRFSGSRSGNTATLTIDSLQAEDEADYYCSSYQRGNTGVFGSGTRLTVLG
modifications: left off: small tags and cut ends
Regarding B6, the values for the LoD in the experiment with dGAE aggregates (setting [2]) and with dGAE aggregates (setting [3]) were 2 ng/mL and 16 ng/mL, respectively.
